Results published in US20190262431.

T1: recombinant Shp-2
T1 sequence (Q06124 2-593, species assumed, looked up): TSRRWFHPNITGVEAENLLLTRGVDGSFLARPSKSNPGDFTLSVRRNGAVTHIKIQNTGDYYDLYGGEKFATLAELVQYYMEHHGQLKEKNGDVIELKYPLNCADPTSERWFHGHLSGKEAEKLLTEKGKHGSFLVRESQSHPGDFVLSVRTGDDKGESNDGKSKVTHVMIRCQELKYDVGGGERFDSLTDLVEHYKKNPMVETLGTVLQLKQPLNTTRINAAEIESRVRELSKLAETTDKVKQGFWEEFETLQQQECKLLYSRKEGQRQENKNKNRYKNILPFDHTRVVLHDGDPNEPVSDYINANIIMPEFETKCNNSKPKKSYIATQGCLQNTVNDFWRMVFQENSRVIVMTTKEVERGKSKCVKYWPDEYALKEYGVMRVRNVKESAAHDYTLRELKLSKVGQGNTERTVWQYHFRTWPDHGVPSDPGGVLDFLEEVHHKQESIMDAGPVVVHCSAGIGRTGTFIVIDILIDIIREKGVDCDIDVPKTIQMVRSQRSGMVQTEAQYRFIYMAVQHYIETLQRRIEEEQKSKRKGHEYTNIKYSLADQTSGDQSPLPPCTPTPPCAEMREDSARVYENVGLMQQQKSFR


What was measured:
[1] = molecular target: active (phosphorylated) human Syk (Merck Millipore), P43405
[2] = molecular target: T1, recombinant Shp-2
[3] = molecular target: inactive (non-phosphorylated) human Syk-GST (Life technologies), P43405

Protein | in vitro poly-ubiquitination of recombinant active Syk (Western blot) [1] | in vitro poly-ubiquitination of recombinant Shp-2 [2] | in vitro poly-ubiquitination of active Syk (Western blot) [1] | in vitro poly-ubiquitination of inactive Syk (Syk-GST) (Western blot) [3]
full length human Cbl-b (Abnova) (protein) MANSMNGRNPGGRGGNPRKGRILGIIDAIQDAVGPPKQAAADRRTVEKTWKLMDKVVRLCQNPKLQLKNSPPYILDILPDTYQHLRLILSKYDDNQKLAQLSENEYFKIYIDSLMKKSKRAIRLFKEGKERMYEEQSQDRRNLTKLSLIFSHMLAEIKAIFPNGQFQGDNFRITKADAAEFWRKFFGDKTIVPWKVFRQCLHEVHQISSGLEAMALKSTIDLTCNDYISVFEFDIFTRLFQPWGSILRNWNFLAVTHPGYMAFLTYDEVKARLQKYSTKPGSYIFRLSCTRLGQWAIGYVTGDGNILQTIPHNKPLFQALIDGSREGFYLYPDGRSYNPDLTGLCEPTPHDHIKVTQEQYELYCEMGSTFQLCKICAENDKDVKIEPCGHLMCTSCLTAWQESDGQGCPFCRCEIKGTEPIIVDPFDPRDEGSRCCSIIDPFGMPMLDLDDDDDREESLMMNRLANVRKCTDRQNSPVTSPGSSPLAQRRKPQPDPLQIPHLSLPPVPPRLDLIQKGIVRSPCGSPTGSPKSSPCMVRKQDKPLPAPPPPLRDPPPPPPERPPPIPPDNRLSRHIHHVESVPSRDPPMPLEAWCPRDVFGTNQLVGCRLLGEGSPKPGITASSNVNGRHSRVGSDPVLMRKHRRHDLPLEGAKVFSNGHLGSEEYDVPPRLSPPPPVTTLLPSIKCTGPLANSLSEKTRDPVEEDDDEYKIPSSHPVSLNSQPSHCHNVKPPVRSCDNGHCMLNGTHGPSSEKKSNIPDLSIYLKGDVFDSASDPVPLPPARPPTRDNPKHGSSLNRTPSDYDLLIPPLGEDAFDALPPSLPPPPPPARHSLIEHSKPPGSSSRPSSGQDLFLLPSDPFVDLASGQVPLPPARRLPGENVKTNRTSQDYDQLPSCSDGSQAPARPPKPRPRRTAPEIHHRKPHGPEAALENVDAKIAKLMGEGYAFEEVKRALEIAQNNVEVARSILREFAFPPPVSPRLNL | robust poly-ubiquitination of recombinant active Syk was observed | No poly-ubiquitination of recombinant Shp-2 was detected in these assays | – | –
human Cbl-b^29-483 (recombinant, GST fusion protein) (protein) IQDAVGPPKQAAADRRTVEKTWKLMDKVVRLCQNPKLQLKNSPPYILDILPDTYQHLRLILSKYDDNQKLAQLSENEYFKIYIDSLMKKSKRAIRLFKEGKERMYEEQSQDRRNLTKLSLIFSHMLAEIKAIFPNGQFQGDNFRITKADAAEFWRKFFGDKTIVPWKVFRQCLHEVHQISSGLEAMALKSTIDLTCNDYISVFEFDIFTRLFQPWGSILRNWNFLAVTHPGYMAFLTYDEVKARLQKYSTKPGSYIFRLSCTRLGQWAIGYVTGDGNILQTIPHNKPLFQALIDGSREGFYLYPDGRSYNPDLTGLCEPTPHDHIKVTQEQYELYCEMGSTFQLCKICAENDKDVKIEPCGHLMCTSCLTAWQESDGQGCPFCRCEIKGTEPIIVDPFDPRDEGSRCCSIIDPFGMPMLDLDDDDDREESLMMNRLANVRKCTDRQNSPVTSPGS | – | – | still exhibited poly-ubiquitination activity towards Syk | non-phosphorylated recombinant Syk showed strongly diminished poly-ubiquitination by Cbl-d^29-483
